Data taken from article PMC8617483, “Structure of the ATP synthase from Mycobacterium smegmatis provides targets for treating tuberculosis” (Proceedings of the National Academy of Sciences of the …, 2021).

B1: ATP synthase γ-subunit from Mycobacterium smegmatis (natural protein, UniProt A0R201 1-307, looked up)
chain: MAATLRELRGRIRSAGSIKKITKAQELIATSRIAKAQARVEAARPYAAEITNMLTELAGASALDHPLLVERKQPKRAGVLVVSSDRGLCGAYNANVLRRAEELFSLLRDEGKDPVLYVVGRKALGYFSFRQRTVVESWTGFSERPTYENAREIADTLVNAFMAGADDEGDDAGADGILGVDELHIVFTEFRSMLSQTAVARRAAPMEVEYVGEVETGPRTLYSFEPDPETLFDALLPRYIATRVYAALLEAAASESASRRRAMKSATDNADDLIKALTLAANRERQAQITQEISEIVGGANALAGSK
notes: ATP synthase subunit γ, M. smegmatis mc2 155, encoded in the entire atp operon; modelled in substate S1a (PDB 7NJK): 3-213, 220-304; One copy in the enzyme
B2: ATP synthase b′-subunit from Mycobacterium smegmatis with a C-terminal His10-tag (natural protein, UniProt A0R204 1-170, looked up)
chain: MGEFSATILAASQAAEEGGGGSNFLIPNGTFFAVLIIFLIVLGVISKWVVPPISKVLAEREAMLAKTAADNRKSAEQVAAAQADYEKEMAEARAQASALRDEARAAGRSVVDEKRAQASGEVAQTLTQADQQLSAQGDQVRSGLESSVDGLSAKLASRILGVDVNSGGTQ
notes: ATP synthase subunit b′, M. smegmatis mc2 155, encoded in the entire atp operon; modelled in substate S1a (PDB 7NJK): 22-166; residues 1 to 21 had no density but are present in the assembled enzyme; One copy in the enzyme; part of the peripheral stalk; No removal of the tag is told; also called b-subunit (in some sentences)
B3: ATP synthase a-subunit from Mycobacterium smegmatis (natural protein, UniProt A0R206 1-252, looked up)
chain: MLAAEEGGAAIHVGHHTLVFELFGMTFNGDTILATAVTAVIVIALAFYLRAKVTSTGVPSGVQLFWEALTIQMRQQIEGSIGMKIAPFVLPLSVTIFVFILISNWLAVLPLQYGGADGAAAELYKAPASDINFVLALALFVFVCYHAAGIWRRGIVGHPIKVVKGHVAFLAPINIVEELAKPISLALRLFGNIFAGGILVALIAMFPWYIQWFPNAVWKTFDLFVGLIQAFIFSLLTILYFSQSMELDHEDH
notes: ATP synthase subunit a, M. smegmatis mc2 155, encoded in the entire atp operon; modelled in substate S1a (PDB 7NJK): 10-247; One copy in the enzyme
B4: ATP synthase bδ-subunit from Mycobacterium smegmatis (natural protein, UniProt A0R203 1-445, looked up)
chain: MSIFIGQLIGFAVIAFIIVKWVVPPVRTLMRNQQEAVRAALAESAEAAKKLADADAMHAKALADAKAESEKVTEEAKQDSERIAAQLSEQAGSEAERIKAQGAQQIQLMRQQLIRQLRTGLGAEAVNKAAEIVRAHVADPQAQSATVDRFLSELEQMAPSSVVIDTAATSRLRAASRQSLAALVEKFDSVAGGLDADGLTNLADELASVAKLLLSETALNKHLAEPTDDSAPKVRLLERLLSDKVSATTLDLLRTAVSNRWSTESNLIDAVEHTARLALLKRAEIAGEVDEVEEQLFRFGRVLDAEPRLSALLSDYTTPAEGRVALLDKALTGRPGVNQTAAALLSQTVGLLRGERADEAVIDLAELAVSRRGEVVAHVSAAAELSDAQRTRLTEVLSRIYGRPVSVQLHVDPELLGGLSITVGDEVIDGSIASRLAAAQTGLPD
notes: ATP synthase subunit bδ (natural fusion of a b-domain, a linking domain and a δ-domain), M. smegmatis mc2 155, encoded in the entire atp operon; modelled in substate S1a (PDB 7NJK): 1-162, 169-444; One copy in the enzyme; part of the peripheral stalk; also called fused bδ-subunit
B5: ATP synthase ε-subunit from Mycobacterium smegmatis (natural protein, UniProt A0R1Z9 1-121, looked up)
chain: MADLNVEIVAVERELWSGPATFVFTRTTAGEIGILPRHIPLVAQLVDDAMVRVEREGEDDLRIAVDGGFLSVTEETVRILVENAQFESEIDADAAKEDAASDDERTAAWGRARLRALGQID
notes: ATP synthase subunit ε, M. smegmatis mc2 155, encoded in the entire atp operon; modelled in substate S1a (PDB 7NJK): 3-120; One copy in the enzyme
B6: ATP synthase c-subunit from Mycobacterium smegmatis (natural protein, UniProt A0R205 1-86, looked up)
chain: MDLDPNAIITAGALIGGGLIMGGGAIGAGIGDGIAGNALISGIARQPEAQGRLFTPFFITVGLVEAAYFINLAFMALFVFATPGLQ
notes: ATP synthase subunit c, M. smegmatis mc2 155, encoded in the entire atp operon; modelled in substate S1a (PDB 7NJK): 3-86 in all nine copies; Nine copies form the c9-ring of the rotor; in the rows with a and ε the subunit stands in that ring; also called c9-ring; c-ring
B7: ATP synthase β-subunit from Mycobacterium smegmatis (natural protein, UniProt A0R200 1-475, looked up)
chain: MTATAEKTAGRVVRITGPVVDVEFPRGSVPELFNALHAEITFGALAKTLTLEVAQHLGDSLVRCISMQPTDGLVRGVEVTDTGASISVPVGDGVKGHVFNALGDCLDDPGYGKDFEHWSIHRKPPAFSDLEPRTEMLETGLKVVDLLTPYVRGGKIALFGGAGVGKTVLIQEMINRIARNFGGTSVFAGVGERTREGNDLWVELADANVLKDTALVFGQMDEPPGTRMRVALSALTMAEFFRDEQGQDVLLFIDNIFRFTQAGSEVSTLLGRMPSAVGYQPTLADEMGELQERITSTRGRSITSMQAVYVPADDYTDPAPATTFAHLDATTELSRAVFSKGIFPAVDPLASSSTILDPAIVGDEHYRVAQEVIRILQRYKDLQDIIAILGIDELSEEDKQLVNRARRIERFLSQNMMAAEQFTGQPGSTVPLKETIEAFDKLTKGEFDHLPEQAFFLIGGLDDLAKKAESLGAKL
notes: ATP synthase subunit β, M. smegmatis mc2 155, encoded in the entire atp operon; modelled in substate S1a (PDB 7NJK): βE 8-471; βTP 7-475; βDP 8-475; Three copies in the enzyme (α3β3); also called βE; βTP

Columns and labels:
Test in all cases: cryo-EM structure; single particles of the ATP synthase purified in detergent and inhibited with bedaquiline (25 μM); 63 maps and 27 models, resolutions 2.11 to 4.15 Å; states S1 to S3 and substates
[1] = target: T1, ATP synthase α-subunit from Mycobacterium smegmatis (Mycobacterium smegmatis, UniProt A0R202 1-548); details: both partners purified
T1 construct: ATP synthase subunit α, M. smegmatis mc2 155, encoded in the entire atp operon; modelled in substate S1a (PDB 7NJK): αE 5-21, 29-406, 411-521; αTP 5-21, 29-406, 411-521; αDP 6-406, 413-521, 527-545; Three copies in the enzyme (α3β3); also called αE; αTP

[2] = target: B1; details: both partners purified
[3] = target: B3; details: both partners purified
[4] = target: B4; details: both partners purified
[5] = target: B5; details: both partners purified
[6] = target: the molecule itself

T1 sequence (A0R202 whole entry): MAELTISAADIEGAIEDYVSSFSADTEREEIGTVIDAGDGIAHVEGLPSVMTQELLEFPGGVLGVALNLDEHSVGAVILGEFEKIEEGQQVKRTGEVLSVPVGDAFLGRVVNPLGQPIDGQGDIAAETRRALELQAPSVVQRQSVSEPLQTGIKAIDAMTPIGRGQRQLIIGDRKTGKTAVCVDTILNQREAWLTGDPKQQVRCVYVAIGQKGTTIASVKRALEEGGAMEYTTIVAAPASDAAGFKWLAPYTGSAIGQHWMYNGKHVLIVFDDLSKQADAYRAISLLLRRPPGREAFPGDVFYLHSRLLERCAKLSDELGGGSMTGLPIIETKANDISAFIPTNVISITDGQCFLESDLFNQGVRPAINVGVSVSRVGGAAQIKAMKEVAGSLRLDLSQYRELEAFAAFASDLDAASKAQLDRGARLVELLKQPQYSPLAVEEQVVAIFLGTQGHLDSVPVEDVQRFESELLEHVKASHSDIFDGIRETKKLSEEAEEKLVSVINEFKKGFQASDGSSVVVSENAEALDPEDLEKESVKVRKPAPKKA

## B1
[1]
  binding result: binds

## B2
[1]
  binding result: binds
[2]
  binding result: binds
[3]
  binding result: binds
[4]
  binding result: binds

## B3
[4]
  binding result: binds

## B4
[1]
  binding result: binds

## B5
[2]
  binding result: binds

## B6
[5]
  binding result: binds
[3]
  binding result: binds
[6]
  stoichiometry N: 9

## B7
[1]
  binding result: binds
